In patent US20250276076A1, “ANTI-ALPP/ALPPL2 ANTIBODIES AND ANTIBODY-DRUG CONJUGATES” (SEAGEN INC., priority 2021, published 2025):

Tested on: ALPP/ALPPL2-expressing HEK293 cells
Test: Flow cytometry and saturation binding of mouse antibodies
Parameters: species or system human
Conditions: flow cytometry
Protocol: Cynomolgus ALPP, human ALPP, ALPPL2, ALPI and ALPL-expressing HEK293 cells were used to evaluate specificity and binding affinity. Briefly, one hundred thousand target-expressing HEK293 cells were transferred to 96-well plates. Cells were pelleted by centrifugation and resuspended in 100 μL of PBS+2% w/v BSA. After blocking, cells were resuspended in PBS+2% w/v BSA with unlabeled monoclonal anti-ALPP/ALPPL2 antibodies ranging in concentration from 8 pM to 666 nM and incubated on ice for 30 minutes. Cells were washed twice in PBS and resuspended in R-PE labeled secondary goat anti-human or anti-mouse antibodies (Jackson Immunoresearch, West Grove, PA) for 30 minutes on ice. Specificity of monoclonal antibodies for human and cynomolgus ALPP and ALPPL2, but not other members of this alkaline phosphatase family was confirmed by flow cytometry. Fluorescence was analyzed using an Attune NxT flow cytometer, and the percent of saturated fluorescent signal was used to determine percent bound and to subsequently calculate apparent KD.

B1: 12F3: murine anti-ALPP/ALPPL2 monoclonal antibody selected for humanization (antibody, V domains shown)
VH: EVKLVESGGGLVQPGGSLSLSCAASGFTFTDYYMSWVRQPPGKALEWLALIRNKATGYTTEYSASVKGRFTISRDNSQSILYLQMNALRAEDSATYYCARASFYYDGKVLAYWGQGTLVTVSA
VL: DTQMTQSPSSLSASLGGKVTITCKASQDINKYIAWYQYKTGKGPRLLIHYTSTLQPGIPSRFSGSGSGRDYSFSISNLEPEDIATYYCLQYDNLYTFGGGTKLEIK
saturation levels for ALPP: higher saturation levels for ALPP than SG84-1F7
